Experimental data published in patent publication US20240075137A1 (COMPUGEN, published 2024).

T1: human PVRIG on cells (human, UniProt Q6DKI7 1-326)
T1 construct: whole, on cells; over-expressed on HEK cells or endogenous on Jurkat and CD8 T cells; also called hPVRIG; HEK hPVRIG cells
T1 sequence (looked up): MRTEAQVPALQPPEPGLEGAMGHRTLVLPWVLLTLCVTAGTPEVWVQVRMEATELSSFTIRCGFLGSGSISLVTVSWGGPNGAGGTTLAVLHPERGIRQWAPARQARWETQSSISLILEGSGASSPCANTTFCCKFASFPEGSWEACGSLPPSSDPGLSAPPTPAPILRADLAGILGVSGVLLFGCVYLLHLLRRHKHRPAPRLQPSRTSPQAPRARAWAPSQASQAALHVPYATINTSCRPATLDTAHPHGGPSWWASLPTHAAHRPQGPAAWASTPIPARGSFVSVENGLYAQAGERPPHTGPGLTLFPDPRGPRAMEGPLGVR

T2: human TIGIT ECD with C-terminal polyhistidine tag (human, UniProt Q495A1 22-141)
T2 construct: in-house or Sino Biological; also called hTIGIT-HIS; human TIGIT-HIS
T2 sequence: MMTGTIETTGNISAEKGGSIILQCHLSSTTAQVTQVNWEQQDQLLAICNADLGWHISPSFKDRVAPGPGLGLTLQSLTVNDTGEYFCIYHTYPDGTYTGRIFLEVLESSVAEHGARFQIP

T3: human TIGIT on cells (human, UniProt Q495A1 22-141)
T3 construct: also called Expi293 human TIGIT over-expressing cells
T3 sequence: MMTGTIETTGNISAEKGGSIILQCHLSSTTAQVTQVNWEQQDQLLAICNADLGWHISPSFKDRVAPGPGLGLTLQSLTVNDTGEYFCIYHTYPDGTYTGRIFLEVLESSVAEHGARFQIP

T4: Mouse TIGIT-His (mouse, UniProt P86176)
T4 construct: also called mouse TIGIT monomer (prepared in-house)
T4 sequence (soluble monomer with His tag, looked up): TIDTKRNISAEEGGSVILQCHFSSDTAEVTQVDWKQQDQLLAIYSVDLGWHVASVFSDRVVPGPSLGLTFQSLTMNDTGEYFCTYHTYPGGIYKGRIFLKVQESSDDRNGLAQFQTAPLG

B1: CPA.7.021 (antibody, V domains shown)
VH: EVQLVESGGGVVKPGGSLRLSCAASGFTFGTSSMNWVRQAPGKGLEWVAVISFDGTEIHYADSVKGRFTISRDNSKSTVFLQMNSLRPDDTALYYCAKGSGNIYFYSGMDVWGQGTTVTVSS
VL: DIQMTQSPSTLSASVGDRVTITCRAGQSISGWLAWFQQKPGKAPNLLIYETSTLESGVPSRFSGSGSGTEYTLTISSLQPDDFATYYCQQYYSYPLTFGQGTKVEIKR
B2: CPA.9.083 (fab) (Fab, V domains shown)
VH: EVQLVETGGGLIQPGRSLRLSCAASGFTFSSYAMHWVRQAPGKGLEWVAVISYDGTPVYYADSVKGRFTISRDNSKNTLYLQMNSLRAEDTAVYYCARDPLPLHYYGMDVWGQGTTVTVSS
VL: QSALTQPRSASGNPGQRVTISCSGSSSNMGRRPVNWYQQIPGTAPKLLIYSQNQRPSGVPDRFSGSQSGTSASLTISGLQSEDEAEYFCAVWDGDRRSLQLGGGTQLAVLG
notes: variant of CPA.9.027 screened as fab
B3: CPA.9.086 (fab) (Fab, V domains shown)
VH: EVQLVETGGGLIQPGRSLRLSCAASGFTFSSYAMHWVRQAPGKGLEWVAVISYAGEVKYYADSVKGRFTISRDNSKNTLYLQMNSLRAEDTAVYYCARDPLPLHYYGMDVWGQGTTVTVSS
VL: QSALTQPRSASGNPGQRVTISCSGSSSNMGRRPVNWYQQIPGTAPKLLIYSQNQRPSGVPDRFSGSQSGTSASLTISGLQSEDEAEYFCAVWDDIGRVLQLGGGTQLAVLG
notes: as for B2
B4: CPA.9.089 (fab) (Fab, V domains shown)
VH: EVQLVETGGGLIQPGRSLRLSCAASGFTFSSYAMHWVRQAPGKGLEWVAVISYDRTPVYYADSVKGRFTISRDNSKNTLYLQMNSLRAEDTAVYYCARDPLPLHYYGMDVWGQGTTVTVSS
VL: QSALTQPRSASGNPGQRVTISCSGSSSNMGRRPVNWYQQIPGTAPKLLIYSQNQRPSGVPDRFSGSQSGTSASLTISGLQSEDEAEYFCATWDDSLPRLNFGGGTKLAVL
notes: as for B2
B5: CPA.9.093 (fab) (Fab, V domains shown)
VH: EVQLVETGGGLIQPGRSLRLSCAASGFTFSSYAMHWVRQAPGKGLEWVAVISYEGDRKYYADSVKGRFTISRDNSKNTLYLQMNSLRAEDTAVYYCARDPLPLHYYGMDVWGQGTTVTVSS
VL: QSALTQPRSASGNPGQRVTISCSGSSSNMGRRPVNWYQQIPGTAPKLLIYSQNQRPSGVPDRFSGSQSGTSASLTISGLQSEDEAEYFCATWDDSTPHGVFGGGTKLAVL
notes: as for B2
B6: CPA.9.027 hIgG4 (antibody, V domains shown)
VH: EVQLVETGGGLIQPGRSLRLSCAASGFTFSSYAMHWVRQAPGKGLEWVAVISYDGSNKYYADSVKGRFTISRDNSKNTLYLQMNSLRAEDTAVYYCARDPLPLHYYGMDVWGQGTTVTVSS
VL: QSALTQPRSASGNPGQRVTISCSGSSSNMGRRPVNWYQQIPGTAPKLLIYSQNQRPSGVPDRFSGSQSGTSASLTISGLQSEDEAEYFCAVWDDSLSSLQLGGGTQLAVLG
notes: phage-derived anti-TIGIT, human IgG4; also called CPA.9.027-H4
B7: CPA.9.083.H4(S241P) (antibody, human IgG4, V domains shown)
VH: EVQLVETGGGLIQPGRSLRLSCAASGFTFSSYAMHWVRQAPGKGLEWVAVISYDGTPVYYADSVKGRFTISRDNSKNTLYLQMNSLRAEDTAVYYCARDPLPLHYYGMDVWGQGTTVTVSS
VL: QSALTQPRSASGNPGQRVTISCSGSSSNMGRRPVNWYQQIPGTAPKLLIYSQNQRPSGVPDRFSGSQSGTSASLTISGLQSEDEAEYFCAVWDGDRRSLQLGGGTQLAVLG
B8: CHA.9.547.7.H4(S241P) (antibody, human IgG4 S228P, kappa, V domains shown)
VH: EVQLVESGGGLVQPGGSLRLSCAASGFTFSSYIMSWVRQAPGKGLEWVATISGGGTNTYYADSVKGRFTISRDNSKNTLYLQMNSLRAEDTAVYYCAKWLLSYYAMDYWGQGTLVTVSS
VL: DIQMTQSPSSLSASVGDRVTITCRASQNINVWLTWYQQKPGKAPKLLIYKASKSHTGVPSRFSGSGSGTDFTLTISSLQPEDFATYYCQQGQSYPYTFGQGTKLEIKR
notes: humanized hybridoma anti-TIGIT antibody, human IgG4
B9: CHA.9.547.13.H4(S241P) (antibody, human IgG4, V domains shown)
VH: EVQLVESGGGLVQPGGSLRLSCAASGFTFSSYIMSWVRQAPGKGLEWVATISGGGTNTYYADSVKGRFTISRDNSKNTLYLQMNSLRAEDTAVYYCAKWLLSYYAMDYWGQGTLVTVSS
VL: DIQMTQSPSSLSASVGDRITITCRASQNINVWLSWYQQKPGKAPKLLIYKASKSHTGVPSRFSGSGSGTDFTLTISSLQPEDFATYYCQQGQSYPYTFGQGTKLEIK
notes: humanized hybridoma antibody, human IgG4 (S241P)

What was measured:
human PVRIG on cells [1] = molecular target: T1, human PVRIG on cells; test: FACS on Jurkat cells; column head 'Kd', unit nM from legend paragraph 75
human PVRIG on cells [2] = molecular target: T1, human PVRIG on cells; test: FACS on HEK hPVRIG cells; column head 'Kd', unit nM from legend paragraph 75
[3] = molecular target: T2, human TIGIT ECD with C-terminal …; test: affinity maturation screen of fabs, SPR on hTIGIT-HIS
human TIGIT on cells [4] = molecular target: T3, human TIGIT on cells; test: flow cytometry of fab; MFI on human TIGIT over-expressing Expi293 / MFI on parental Expi293
cyno TIGIT on cells [5] = molecular target: T5, cyno TIGIT on cells (cynomolgus macaque); test: flow cytometry of fab; MFI on cyno TIGIT over-expressing Expi293 / MFI on parental Expi293
T5 construct: whole, on cells; also called Expi293 cyno TIGIT over-expressing cells

human TIGIT on cells [6] = molecular target: T3, human TIGIT on cells; test: FACS blocking: Expi293 human TIGIT cells pre-incubated with mAb, then human PVR-m2aFc; lower gMFI = more blocking
cyno TIGIT on cells [7] = molecular target: T5, cyno TIGIT on cells; test: FACS KD on Expi293 cyno TIGIT over-expressing cells; ± 95% CI of the fit
human TIGIT on cells [8] = molecular target: T3, human TIGIT on cells; test: FACS KD on Expi293 human TIGIT over-expressing cells; ± 95% CI of the fit
[9] = molecular target: T2, human TIGIT ECD with C-terminal …; test: SPR (ProteOn), mAb captured, human TIGIT injected
Method: (§1) All experiments were performed using a ProteOn XPR 36 instrument at 22° C. First, high density capture surfaces were prepared with goat anti human Fc polyclonal antibody (Thermo #H10500) and rabbit anti mouse antibodies (GE Healthcare #BR100838), respectively, immobilized over all vertical capture lanes and horizontal interspots on separate GLC chips using standard amine coupling. Typical immobilization levels for the anti-human capture pAb and the anti-mouse capture antibody for each GLC chip were around 5000 RU. Human TIGIT was obtained from Sino Biologicals while mouse TIGIT monomer and cyno TIGIT monomer were prepared in-house.
(§2) Each mAb was diluted to ˜0.5 μg/mL in running buffer which was 1×PBST with filtered BSA added to a final concentration of 100 μg/mL. For each “single-shot kinetics” cycle on the ProteOn instrument, a different mAb was captured over one of the six unique vertical capture lanes for approximately 1.5-2.5 minutes. After switching the buffer flow of the ProteOn to the horizontal direction, capture surfaces were stabilized for approximately 15-20 minutes. […] An identical buffer injection preceded each series of injected antigen for double-referencing. […] The sensorgrams of TIGIT antigen injected over captured mAbs were processed using a ProteOn version of Scrubber and were fit to a 1:1 kinetic binding model including a term for mass transport.

Mouse TIGIT-His [10] = molecular target: T4, Mouse TIGIT-His; test: SPR (ProteOn), mAb captured, mouse TIGIT monomer injected
Method: as §1, §2

human TIGIT on cells [11] = molecular target: T3, human TIGIT on cells; test: FACS blocking of human PVR-m2aFc binding to human TIGIT OE Expi293 cells; binding site concentration; n=2
human TIGIT on cells [12] = molecular target: T3, human TIGIT on cells; test: FACS titration of AF647-labelled mAb on human effector memory CD8+ T cells, Donor 321
Cyno TIGIT-His = molecular target: T6, Cyno TIGIT-His; test: SPR (ProteOn), Cyno TIGIT-His
T6 construct: also called cyno TIGIT monomer (prepared in-house); C-terminal HIS-tagged cyno TIGIT ECD recombinant protein

Mouse TIGIT-His [13] = molecular target: T4, Mouse TIGIT-His; test: SPR (ProteOn), Mouse TIGIT-His
human TIGIT on cells [14] = molecular target: T3, human TIGIT on cells; test: FACS titration on human TIGIT OE Expi293 cells, binding site concentration; ± 95% CI; 'Fit: Excellent'
Method: AF647-labeled goat anti-human F(ab′) (Jackson Immunoresearch) was added to the cells to detect binding of anti-TIGIT antibodies.

cyno TIGIT on cells [15] = molecular target: T5, cyno TIGIT on cells; test: FACS titration of AF647-labelled mAb on cyno effector memory CD8+ T cells, Cyno Donor 1; isotype gMFI subtracted
human TIGIT on cells [16] = molecular target: T3, human TIGIT on cells; test: FACS titration of AF647-labelled mAb on human effector memory CD8+ T cells, Donor 322
human TIGIT on cells [17] = molecular target: T3, human TIGIT on cells; test: FACS blocking of human PVR-m2aFc binding to human TIGIT OE Expi293 cells; binding site concentration; n=1
[18] = molecular target: T2, human TIGIT ECD with C-terminal …; test: KinExA equilibrium, His-tagged human TIGIT, n = 1
Method: KinExA equilibrium experiments were performed using a KinExA 3200 instrument (Sapidyne Instruments, Boise, ID, USA) at 22° C. Recombinant His-tagged human TIGIT was obtained from Sino Biologicals (Beijing, China) and reconstituted into 1×PBS. All antigen and antibody samples for KinExA analyses were prepared in degassed PBST buffer (PBS with 0.05% tween 20) with 100 ug/mL filtered BSA and 0.02% sodium azide. […] For each KinExA experiment, ˜20 lag of human TIGIT was diluted into 1 mL of 50 mM sodium carbonate, pH 9.2 which was added directly to 50 mg of azlactone beads (Ultralink Support, Thermo Scientific, Rockford, IL, USA) and rocked overnight at 4° C. After rocking, the beads were rinsed once with 1 M Tris buffer, pH 8.5, containing 10 mg/mL BSA and rocked for one hour at room temperature in the same buffer. Coupled beads were added to the bead reservoir in the KinExA instrument and diluted to ˜30 mL with 1×HBS-N (0.01 M Hepes, 0.15M NaCl, GE Healthcare) containing 0.02% sodium azide which was also the running buffer for the KinExA instrument. All antigen-coupled beads were used immediately after preparation.
The volume flowed through the bead pack for each equilibrated sample for all experiments ranged from 4 mL to 11 mL at a flow rate of 0.25 mL/min.

[19] = molecular target: T2, human TIGIT ECD with C-terminal …; test: SPR (ProteOn), Human TIGIT-His
cyno TIGIT on cells [20] = molecular target: T5, cyno TIGIT on cells; test: FACS titration of AF647-labelled mAb on cyno effector memory CD8+ T cells, Cyno Donor 3; isotype gMFI subtracted
cyno TIGIT on cells [21] = molecular target: T5, cyno TIGIT on cells; test: FACS titration on cyno TIGIT OE Expi293 cells, binding site concentration; ± 95% CI; 'Fit: Good/Excellent'
Method: AF647-labeled goat anti-human F(ab′) (Jackson Immunoresearch) was added to the cells to detect binding of anti-TIGIT antibodies. The gMFI of the anti-TIGIT antibodies bound to the cyno TIGIT over-expressing Expi293 cells (black line), and the parental Expi293 cells (grey line) are shown.

human TIGIT on cells [22] = molecular target: T3, human TIGIT on cells; test: FACS titration of AF647-labelled mAb on human effector memory CD8+ T cells, Donor 334

T6 sequence (ECD with C-terminal His tag, as listed by the source): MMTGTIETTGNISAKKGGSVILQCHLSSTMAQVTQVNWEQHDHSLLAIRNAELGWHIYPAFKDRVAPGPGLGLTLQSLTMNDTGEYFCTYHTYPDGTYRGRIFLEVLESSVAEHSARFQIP

Binder	fold improvement in binding over CPA.9.027 [3]	MFIr (OE/Par) hTIGIT (human TIGIT on cells [4])	MFIr (OE/Par) cTIGIT (cyno TIGIT on cells [5])	IC50 (human TIGIT on cells [11])	Kd (human TIGIT on cells [12])	Kd (human TIGIT on cells [14])	Kd (human TIGIT on cells [16])	IC50 (human TIGIT on cells [17])	Kd (cyno TIGIT on cells [21])	Kd (human TIGIT on cells [22])	other results
B1	–	–	–	–	–	–	–	–	–	–	Kd (human PVRIG on cells [1]): 3.18 nM; Kd (human PVRIG on cells [2]): 2.94 nM
B2	≥ 25 fold	170	97	–	–	–	–	–	–	–	–
B3	≥ 25 fold	36	34	–	–	–	–	–	–	–	–
B4	≥ 25 fold	110	52	–	–	–	–	–	–	–	–
B5	≥ 25 fold	80	60	–	–	–	–	–	–	–	–
B6	–	–	–	–	–	–	–	–	–	–	gMFI of bound PVR-m2aFc at 266 pM mAb (human TIGIT on cells [6]): 529; gMFI of bound PVR-m2aFc at 1.3 nM mAb (human TIGIT on cells [6]): 253; gMFI of bound PVR-m2aFc at 6.7 nM mAb (human TIGIT on cells [6]): 208; Kd (cyno TIGIT on cells [7]): 2.25 nM; Kd (human TIGIT on cells [8]): 0.17 nM; Kd [9]: 0.13 nM; Kd (Mouse TIGIT-His [10]): 80 nM
B7	–	–	–	0.22 nM	0.13 nM	0.39 nM	0.12 nM	0.47 nM	0.49 nM	0.13 nM	binding result (Cyno TIGIT-His): binds; Kd (Mouse TIGIT-His [13]): 0.434 nM; Kd (cyno TIGIT on cells [15]): 0.82 nM; Kd [18]: 0.000694 nM; Kd [19]: 0.0017 nM; Kd (cyno TIGIT on cells [20]): 0.88 nM
B8	–	–	–	0.15 nM	1.8 nM	0.82 nM	2.1 nM	0.21 nM	1.54 nM	1.8 nM	Kd (Cyno TIGIT-His): 0.456 nM; binding result (Mouse TIGIT-His [13]): no binding (tested: not printed); Kd [19]: 0.035 nM
B9	–	–	–	0.21 nM	2 nM	0.71 nM	1.9 nM	0.26 nM	1.67 nM	1.2 nM	Kd [18]: 0.0188 nM
